# Entries after “also recorded” stand apart in the source; their conditions may differ. Where two headings read alike, the source gives them in different places. Peptide text beside a SMILES is read from it. * marks the point of attachment. X1 = CC1(C)C(/C=C/C=C/C=C/C=C2/N(CCCCCC(=O)NCCN3C(=O)CC(*)C3=O)c3ccc4ccccc4c3C2(C)C)=[N+](CCCCS(=O)(=O)[O-])c2ccc3ccccc3c21
# Tests used:
# [1] = Peripheral blood micronucleus test in rats (GLP); assay type: in vivo, Sprague Dawley rats
# Protocol: The objective of this GLP study performed at CRL was to determine the potential genotoxicity of pHLIP ICG when given by i.v. bolus injection to rats using the peripheral blood micronucleus test.
# In order to determine the maximum tolerated dose, a dose-range finding test was performed prior to the main test, where male and female rats (3 animals/sex) were administered a single dose of pHLIP ICG by i.v. injection. The doses evaluated were 14 mg/kg and 25 mg/kg using 5% EtOH in PBS, pH 7.4 as the vehicle.
# Blood was collected for micronuclei evaluation at 45 hours post-dose (Groups 3 to 7), and 69 hours post-dose (Groups 3 and 7). The proportion of immature erythrocytes among total erythrocytes in the peripheral blood (%RETs) and the percentage of micronucleated reticulocytes (%MN-RETs) in the NC group were within the laboratory historical negative control range. […] The results from both NC and PC groups confirmed the validity of the assay.
# [2] = Biodistribution, %ID/g estimated from tissue/organ homogenates; assay type: in vivo, BALB/c mice; conditions: BALB/c, mouse, small and large intestines, bone, skin, muscle, prostate, iv, 0.5 mg/kg; all time points; estimate; read-out: Amount in small and large intestines, bone, skin and muscle (and prostate)
# Protocol: The fluorescence signals in organs and tissue were also measured in the tissue/organ homogenates and compared with the signals from the control tissue/organ homogenates (collected from control mice) mixed with known amounts of pHLIP ICG. Samples of about 100 mg of tissue were homogenized with 2.5x (about 250 µL) volumes of DMSO using BioMasher II disposable homogenizers (DiagnoCine, LLC). 30 µl of each homogenate was placed into a 384-well plate and imaged using an Odyssey IR scanner (Li-Cor Biosciences). Tissue homogenates of control mice mixed with known concentrations of pHLIP ICG were used to establish the calibration curve.
# [3] = Single-dose and 7-days repeat i.v. toxicity with TK in Beagle dogs (GLP); assay type: in vivo; conditions: for AUC(0-t) / C0: 2.16 mg/kg, daily i.v. bolus 2.16 mg/kg
# Protocol: The objectives of this GLP study, performed at CRL, were to determine the potential toxicity of pHLIP ICG, when given by single dose i.v. injection or once daily (i.v. injections) for 7 days in dogs, and to evaluate the potential reversibility of any findings following the single dose injection. In addition, toxicokinetic characteristics of pHLIP ICG were examined.
# The following parameters and end points were evaluated in the study: mortality, clinical observations, body weights, food consumption, ophthalmology and electrocardiology assessments, clinical pathology parameters (hematology, coagulation, clinical chemistry, and urinalysis), toxicokinetic parameters, gross necropsy findings, organ weights, and histopathological examinations.
# [4] = system: human peripheral blood lymphocytes; assay: In vitro mammalian cell micronucleus test; assay type: cell-based; conditions: up to 0.5 mg/mL
# Protocol: The objective of this study performed at CRL was to determine the potential genotoxicity of pHLIP ICG using an in vitro mammalian cell micronucleus test in human peripheral blood lymphocytes.
# Human peripheral blood lymphocytes were treated with pHLIP ICG at levels up to the standard limit of 0.5 mg/mL. […] The negative control results were within the laboratory negative historical control range. Lymphocytes were also incubated with standard positive controls, which caused statistically significant increases in the proportion of cells with micronuclei, confirming the sensitivity of the test system and the activity of the S9 mix. All criteria for a valid assay were therefore met.
# [5] = male rats, single i.v. 6.25, 12.5 and 25 mg/kg
structure (smiles),measurement,setting,value
CC(C)C[C@H](NC(=O)[C@H](Cc1ccc(O)cc1)NC(=O)[C@H](C)NC(=O)[C@H](CCCNC(=N)N)NC(=O)[C@H](Cc1c[nH]c2ccccc12)NC(=O)[C@@H]1CCCN1C(=O)[C@H](CC(N)=O)NC(=O)[C@H](CCC(N)=O)NC(=O)[C@H](CC(=O)O)NC(=O)[C@H](CC(=O)O)NC(=O)[C@H](CSC1CC(=O)N(CCNC(=O)CCCCCN2/C(=C/C=C/C=C/C=C/C3=[N+](CCCCS(=O)(=O)[O-])c4ccc5ccccc5c4C3(C)C)C(C)(C)c3c2ccc2ccccc32)C1=O)NC(=O)[C@H](C)N)C(=O)N[C@@H](CC(=O)O)C(=O)N[C@@H](CC(C)C)C(=O)N[C@@H](CC(C)C)C(=O)N[C@@H](Cc1ccccc1)C(=O)N1CCC[C@H]1C(=O)N[C@H](C(=O)N[C@@H](CC(=O)O)C(=O)N[C@H](C(=O)N[C@@H](CC(C)C)C(=O)N[C@@H](CC(C)C)C(=O)N[C@@H](CC(C)C)C(=O)N[C@@H](CC(=O)O)C(=O)N[C@@H](CC(C)C)C(=O)N[C@@H](CC(C)C)C(=O)N[C@@H](Cc1c[nH]c2ccccc12)C(=O)N[C@@H](C)C(=O)O)[C@@H](C)O)[C@@H](C)O (some centres unmarked) [pHLIP ICG] (H-AC(X1)DDQNPWRAYLDLLFPTDTLLLDLLWA-OH),Genotoxic activity (%MN-RETs),[1]; [5],did not induce cytogenetic damage; also recorded: showed no evidence of genotoxic activity
same,Reduction in %RETs (cytotoxicity),[1]; [5],No substantial reduction
same,Clinical signs in dose-range finding test,"[1]; rats 3 animals/sex, single i.v. 14 mg/kg and 25 mg/kg",no adverse clinical signs were noted
same,tissue uptake,[2],< 2 %ID/g
same,Clinical chemistry changes,"[3]; 2.16 mg/kg/day i.v. for 7 days, males and females, non-adverse",minimal decreases in cholesterol
same,AUC(0-t),"[3]; Beagle, dog, in vivo, iv, mean, read-out: AUCTlast, day 1",65400 ng·h/mL
same,AUC(0-t),"[3]; Beagle, dog, in vivo, iv, mean, read-out: AUCTlast, day 7",72300 ng·h/mL
same,C0,"[3]; Beagle, dog, in vivo, iv, mean, read-out: C0, day 1",38400 ng/mL
same,C0,"[3]; Beagle, dog, in vivo, iv, mean, read-out: C0, day 7",42700 ng/mL
same,Cmax,"[3]; both sexes, Beagle, dog, in vivo, iv, 2.16 mg/kg/day for 7 days, mean, males and females, read-out: Cmax at NOAEL",40300 ng/mL
same,NOAEL,"[3]; males and females, 7 days repeated i.v. administration",above 2.16 mg/kg/day
same,Overall toxicity finding,"[3]; single i.v. bolus 0.063, 1.08, 2.16 mg/kg or once daily for 7 days at 2.16 mg/kg/day",did not adversely affect the overall health or condition of the animals
same,Cytotoxicity or precipitation in the assay,[4],no pHLIP ICG related cytotoxicity or precipitation was observed
same,Induction of micronuclei,"[4]; 4 h without/with S9, 24 h without S9",did not show any evidence of genotoxic activity; also recorded: negative for the induction of micronuclei

# Source: paper PMC7591906, “pHLIP ICG for delineation of tumors and blood flow during fluorescence-guided surgery” (Scientific Reports, 2020)
